According to patent US20220096608:

Biological target: T1, α2-antiplasmin, P08697
T1 chain: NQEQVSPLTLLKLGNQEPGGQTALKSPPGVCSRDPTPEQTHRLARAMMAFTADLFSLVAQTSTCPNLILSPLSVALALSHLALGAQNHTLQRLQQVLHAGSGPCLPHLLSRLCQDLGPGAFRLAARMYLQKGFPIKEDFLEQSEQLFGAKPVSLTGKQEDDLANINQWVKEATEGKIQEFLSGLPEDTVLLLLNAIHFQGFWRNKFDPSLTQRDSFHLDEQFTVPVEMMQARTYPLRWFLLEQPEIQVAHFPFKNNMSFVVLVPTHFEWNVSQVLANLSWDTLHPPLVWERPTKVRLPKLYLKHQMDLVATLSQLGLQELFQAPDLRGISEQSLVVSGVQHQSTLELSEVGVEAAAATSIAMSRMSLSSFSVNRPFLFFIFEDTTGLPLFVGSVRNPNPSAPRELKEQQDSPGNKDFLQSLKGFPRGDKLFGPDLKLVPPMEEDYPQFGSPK

Protein	In vitro Half-life (of inactivation by α2-antiplasmin) [min]
Mono-PEGylated Micro-plasmin variant (40 kDa PEG) V82C Catalytic Domain (SEQ ID NO. 4) (protein) APSFDCGKPQVEPKKCPGRVVGGCVAHPHSWPWQVSLRTRFGMHFCGGTLISPEWVLTAAHCLEKSPRPSSYKVILGAHQECNLEPHVQEIEVSRLFLEPTRKDIALLKLSSPAVITDKVIPACLPSPNYVVADRTECFITGWGETQGTFGAGLLKEAQLPVIENKVCNRYEFLNGRVQSTELCAGHLAGGTDSCQGDSGGPLVCFEKDKYILQGVTSWGLGCARPNKPGVYVRVSRFVTWIEGVMRNN	>7
Mono-PEGylated Micro-plasmin variant (40 kDa PEG) H87C Catalytic Domain (SEQ ID NO. 9) (protein) APSFDCGKPQVEPKKCPGRVVGGCVAHPHSWPWQVSLRTRFGMHFCGGTLISPEWVLTAAHCLEKSPRPSSYKVILGAHQEVNLEPCVQEIEVSRLFLEPTRKDIALLKLSSPAVITDKVIPACLPSPNYVVADRTECFITGWGETQGTFGAGLLKEAQLPVIENKVCNRYEFLNGRVQSTELCAGHLAGGTDSCQGDSGGPLVCFEKDKYILQGVTSWGLGCARPNKPGVYVRVSRFVTWIEGVMRNN	>7
Bi-PEGylated Micro-plasmin variant (20 kDa-20 kDa PEG) V82C-H87C Catalytic Domain (SEQ ID NO. 12) (protein) APSFDCGKPQVEPKKCPGRVVGGCVAHPHSWPWQVSLRTRFGMHFCGGTLISPEWVLTAAHCLEKSPRPSSYKVILGAHQECNLEPCVQEIEVSRLFLEPTRKDIALLKLSSPAVITDKVIPACLPSPNYVVADRTECFITGWGETQGTFGAGLLKEAQLPVIENKVCNRYEFLNGRVQSTELCAGHLAGGTDSCQGDSGGPLVCFEKDKYILQGVTSWGLGCARPNKPGVYVRVSRFVTWIEGVMRNN	>10
Wild-type Micro-plasmin (SEQ ID NO. 2) (protein) APSFDCGKPQVEPKKCPGRVVGGCVAHPHSWPWQVSLRTRFGMHFCGGTLISPEWVLTAAHCLEKSPRPSSYKVILGAHQEVNLEPHVQEIEVSRLFLEPTRKDIALLKLSSPAVITDKVIPACLPSPNYVVADRTECFITGWGETQGTFGAGLLKEAQLPVIENKVCNRYEFLNGRVQSTELCAGHLAGGTDSCQGDSGGPLVCFEKDKYILQGVTSWGLGCARPNKPGVYVRVSRFVTWIEGVMRNN	>5
Mono-PEGylated Micro-plasmin variant (20 kDa PEG) V82C Catalytic Domain (SEQ ID NO. 4) (protein) APSFDCGKPQVEPKKCPGRVVGGCVAHPHSWPWQVSLRTRFGMHFCGGTLISPEWVLTAAHCLEKSPRPSSYKVILGAHQECNLEPHVQEIEVSRLFLEPTRKDIALLKLSSPAVITDKVIPACLPSPNYVVADRTECFITGWGETQGTFGAGLLKEAQLPVIENKVCNRYEFLNGRVQSTELCAGHLAGGTDSCQGDSGGPLVCFEKDKYILQGVTSWGLGCARPNKPGVYVRVSRFVTWIEGVMRNN	6 to 7
Mono-PEGylated Micro-plasmin variant (20 kDa PEG) H87C Catalytic Domain (SEQ ID NO. 9) (protein) APSFDCGKPQVEPKKCPGRVVGGCVAHPHSWPWQVSLRTRFGMHFCGGTLISPEWVLTAAHCLEKSPRPSSYKVILGAHQEVNLEPCVQEIEVSRLFLEPTRKDIALLKLSSPAVITDKVIPACLPSPNYVVADRTECFITGWGETQGTFGAGLLKEAQLPVIENKVCNRYEFLNGRVQSTELCAGHLAGGTDSCQGDSGGPLVCFEKDKYILQGVTSWGLGCARPNKPGVYVRVSRFVTWIEGVMRNN	6 to 7
